B1: FX-76-1-m3 (antibody, V domains shown)
VH: QVQLLETGGGLVKPGQSLKLSCAASGFTFTSFAMHWVRQPPGKGLEWVAVVSYDGNYKYYADSVQGRFTISRDNSKNTLYLQMNSLRAEDTAVYYCAKDSRRRSLLYFEWLSQGYFNPWGQGTTLTVSS
VL: DIQMTQSPSSLSASVGDRVTITCRSSQSITFDYKNYLAWYQQKPGKAPKLLIYWGSYLESGVPSRFSGSGSGTDFTLTISSLQPEDFATYYCQQHYRTPPSFGQGTKVEIK
B2: FX-3-2-m3 (antibody, V domains shown)
VH: QVQLVESGGGVVQPGRSLRLSCAASGFTFSTYAMHWVRQAPGKGLEWVAVISYDANYKYYADSVKGRFTISRDNSKNTLYLQMNSLRAEDTAVYYCAKDSQLRSLLYFEWLSQGYFDYWGQGTLVTVSS
VL: DIQMTQSPSSLSASVGDRVTITCRSSQSITFDYKNYLAWYQQKPGKAPKLLIYWGSSLQSGVPSRFSGSGSGTDFTLTISSLQPEDFATYYCQQHYRTPPSFGQGTKVEIK
B3: FX-5-2-m3 (antibody, V domains shown)
VH: QVQLVESGGGVVQPGRSLRLSCAASGFTFSTYAMHWVRQAPGKGLEWVCVISYDANYKYYADSVKGRFTCSRDNSKNTLYLQMNSLRAEDTAVYYCARDSRLRSLLYFEWLSQGYFDYWGQGTLVTVSS
VL: DIQMTQSPSSLSASVGDRVTITCRSSQSITFDYKNYLAWYQQKPGKAPKLLIYWGSSLQSGVPSRFSGSGSGTDFTLTISSLQPEDFATYYCQQHYRTPPSFGQGTKVEIK
B4: FX-10-2-m3 (antibody, V domains shown)
VH: QVQLVQSGAEVKKPGSSVKVSCKASGFTFSTYAIHWVRQAPGQGLEWMGVISYDANYKYYAQKFQGRVTITRDNSKSTAYMELSSLRSEDTAVYYCARDSRLRSLLYFEWLSQGYFDYWGQGTTLTVSS
VL: DIQMTQSPSSLSASVGDRVTITCRSSQSITFDYKNYLAWYQQKPGKAPKLLIYWGSSLQSGVPSRFSGSGSGTDFTLTISSLQPEDFATYYCQQHYRTPPSFGQGTKVEIK
B5: FX-4-2-m3 (antibody, V domains shown)
VH: QVQLVESGGGVVQPGRSLRLSCAASGFDFSTYAMHWVRQAPGKGLEWVAVISYDANYKYYADSVKGRFTISRDNSKNTLYLQMNSLRAEDTAVYYCARDSRLRSLLYFEWLSQGYFDYWGQGTLVTVSS
VL: DIQMTQSPSSLSASVGDRVTITCRSSQSITFDYKNYLAWYQQKPGKAPKLLIYWGSSLQSGVPSRFSGSGSGTDFTLTISSLQPEDFATYYCQQHYRTPPSFGQGTKVEIK
B6: FX-3-3-m3 (antibody, V domains shown)
VH: QVQLVESGGGVVQPGRSLRLSCAASGFTFSTYAMHWVRQAPGKGLEWVAVISYDANYKYYADSVKGRFTISRDNSKNTLYLQMNSLRAEDTAVYYCAKDSQLRSLLYFEWLSQGYFDYWGQGTLVTVSS
VL: DIQMTQSPSSLSASVGDRVTITCRSSQSITFDYKNYLAWYQQKPGKAPKLLIYAASSLQSGVPSRFSGSGSGTDFTLTISSLQPEDFATYYCQQHYRTPPSFGQGTKVEIK
B7: FX-12-2-m3 (antibody, V domains shown)
VH: QVQLVQSGAEVKKPGASVKVSCKASGFTFSTYAINWVRQATGQGLEWMGVISYDANYKYYAQKFQGRVTMTRDTSISTAYMELSSLRSEDTAVYYCARDSQLRSLLYFEWLSQGYFDYWGQGTTLTVSS
VL: DIQMTQSPSSLSASVGDRVTITCRSSQSITFDYKNYLAWYQQKPGKAPKLLIYWGSSLQSGVPSRFSGSGSGTDFTLTISSLQPEDFATYYCQQHYRTPPSFGQGTKVEIK
B8: FX-6-2-m3 (antibody, V domains shown)
VH: QVQLVESGGGVVQPGRSLRLSCAASGFTFDTYAMHWVRQAPGKGLEWVAVISYDANYKYYADSVKGRFTISRDNSKNTLYLQMNSLRAEDTAVYYCARDSRLRSLLYFEWLSQGYFDYWGQGTLVTVSS
VL: DIQMTQSPSSLSASVGDRVTITCRSSQSITFDYKNYLAWYQQKPGKAPKLLIYWGSSLQSGVPSRFSGSGSGTDFTLTISSLQPEDFATYYCQQHYRTPPSFGQGTKVEIK
B9: FX-5-6-m3 (antibody, V domains shown)
VH: QVQLVESGGGVVQPGRSLRLSCAASGFTFSTYAMHWVRQAPGKGLEWVCVISYDANYKYYADSVKGRFTCSRDNSKNTLYLQMNSLRAEDTAVYYCARDSRLRSLLYFEWLSQGYFDYWGQGTLVTVSS
VL: EIVMTQSPATLSVSPGERATLSCRSSQSITFDYKNYLAWYQQKPGQAPRLLIYWGSTRATGIPARFSGSGSGTEFTLTISSLQSEDFAVYYCQQHYRTPPSFGQGTKVEIK
B10: FX-7-6-m3 (antibody, V domains shown)
VH: EVQLLESGGGLVQPGGSLRLSCAASGFTFSSYAMHWVRQAPGKGLEWVSVISYDANYKYYADSVKGRFTISRDNSKNTLYLQMNSLRAEDTAVYYCAKDSQLRSLLYFEWLSQGYFDYWGQGTTLTVSS
VL: EIVMTQSPATLSVSPGERATLSCRSSQSITFDYKNYLAWYQQKPGQAPRLLIYWGSTRATGIPARFSGSGSGTEFTLTISSLQSEDFAVYYCQQHYRTPPSFGQGTKVEIK
B11: FX-10-6-m3 (antibody, V domains shown)
VH: QVQLVQSGAEVKKPGSSVKVSCKASGFTFSTYAIHWVRQAPGQGLEWMGVISYDANYKYYAQKFQGRVTITRDNSKSTAYMELSSLRSEDTAVYYCARDSRLRSLLYFEWLSQGYFDYWGQGTTLTVSS
VL: EIVMTQSPATLSVSPGERATLSCRSSQSITFDYKNYLAWYQQKPGQAPRLLIYWGSTRATGIPARFSGSGSGTEFTLTISSLQSEDFAVYYCQQHYRTPPSFGQGTKVEIK
B12: FX-3-6-m3 (antibody, V domains shown)
VH: QVQLVESGGGVVQPGRSLRLSCAASGFTFSTYAMHWVRQAPGKGLEWVAVISYDANYKYYADSVKGRFTISRDNSKNTLYLQMNSLRAEDTAVYYCAKDSQLRSLLYFEWLSQGYFDYWGQGTLVTVSS
VL: EIVMTQSPATLSVSPGERATLSCRSSQSITFDYKNYLAWYQQKPGQAPRLLIYWGSTRATGIPARFSGSGSGTEFTLTISSLQSEDFAVYYCQQHYRTPPSFGQGTKVEIK

Twelve molecules from patent US20230257449A1 can be followed below.

The first assay has as its target H1 HA (strain not stated) (influenza A virus H1). Put plainly: HA binding EC50; column head not printed: H1 HA and pM inferred.
What is called EC50 is the concentration at which the effect is half-maximal. The molecule B1 registered a half-maximal effective concentration (EC50) of 3.8 pM.

The target of another assay is polyclonal human IgG. Nature of the assay: BLI (Octet) polyreactivity. For orientation: Biolayer interferometry detects binding as a change in optical thickness at a sensor tip.
In turn, B2 displayed a poly reactivity octet max binding response (nm) of 0.521 nm.
The same measure, in the same setting: the same measure for B3: 0.992 nm.
B4 came in with a poly reactivity octet max binding response (nm) of 0.681 nm.
Still for that read-out and setting: the figure for B5 is 0.758 nm; for B6 it is 0.485 nm.
Still for that read-out and setting: the figure for B7 is 0.391 nm.
Still for that read-out and setting: the figure for B8 is 0.798 nm; for B9 it is 1.13 nm; for B10 it is 0.703 nm.
Turning to B11, the poly reactivity octet max binding response (nm) was 0.862 nm.
Same read-out and setting: the figure for B12 is 0.774 nm.
